Source: article PMC6303327

Assays:
[1] = molecular target: Rfa3 OB domain (DBD-E), residues 1-99, without the C-terminal trimerisation helix (S. cerevisiae) (UniProt P26755); test: MST; as the MST without ssDNA, but in the presence of excess ssDNA (dT10 at 2 µM in each binding reaction; grey trace); replicated twice; apparent EC50 from the Hill equation
[2] = molecular target: Rfa3 OB domain (DBD-E), residues 1-99, without the C-terminal trimerisation helix (S. cerevisiae) (UniProt P26755); test: MST; 50 nM NT-495-labelled DBD-E mixed with equal volumes of a dilution series of DBD-A; 20 mM Tris pH 7.5, 150 mM NaCl, 0.5 mM TCEP, 0.01% Tween-20, 0.1 mg/ml BSA; 25 °C; no ssDNA (black trace); apparent EC50 from the Hill equation

Chain of Rfa3 OB domain (DBD-E), residues 1-99, without the C-terminal trimerisation helix (S. cerevisiae) (P26755 1-99): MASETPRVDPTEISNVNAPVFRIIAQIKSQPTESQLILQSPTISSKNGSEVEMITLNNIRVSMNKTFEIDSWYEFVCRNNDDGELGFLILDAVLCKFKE
Chain of Rfa1 DNA-binding domain A (DBD-A), residues 178-294 (P22336 178-294): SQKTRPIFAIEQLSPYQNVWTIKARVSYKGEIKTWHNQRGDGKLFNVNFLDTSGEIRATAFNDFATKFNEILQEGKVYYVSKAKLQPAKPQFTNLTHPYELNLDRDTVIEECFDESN

Substance	EC50 [1] [µM]	EC50 [2] [µM]
Rfa1 DNA-binding domain A (DBD-A), residues 178-294, phosphomimetic S178D mutant (from UniProt P22336 178-294) (domain or fragment)	25	23
Rfa1 DNA-binding domain A (DBD-A), residues 178-294 (from UniProt P22336 178-294) (domain or fragment)	84	96
